Legend:
[1] = target: T1, human PD-1 expressed on cells (CHO TREX human PD1 cell line, full-length human PD-1 sequence) (human, UniProt Q15116 21-288); assay: cell-based or functional assay
[2] = target: T1, human PD-1 expressed on cells (CHO TREX …); assay: FMAT binding to CHO human PD-1 cells
[3] = target: T1, human PD-1 expressed on cells (CHO TREX …); assay: FMAT: inhibition of human Fc tagged human PD-L1 (400 pM) binding to CHO human PD-1 cells
Protocol: Purified VH were serially diluted in FMAT assay buffer and tested for binding to CHO human PD-1 cells as described above and for inhibition of human PD-L1/PD-L2 binding to CHO human PD-1 cells. All reagents and serially diluted VH were prepared in FMAT assay buffer. VH, buffer (total binding controls) or excess competitor (non-specific binding control) were incubated with 400 pM human Fc tagged human PD-L1 or 100 pM PDL-2, 4 nM anti human Fc-Alexa Fluor-488 and 2000 per well CHO human PD-1 DRAQ5 stained cells in a 384 well black clear-bottomed assay plates. Plates were incubated for 2 hours at room temperature then fluorescence measured in the FL2 (502 nm-537 nm) and FL5 (677-800 nm) channels on the Mirrorball plate reader (TTP) following excitation at 488 nm and 640 nm. Data was expressed as a % of the total binding control (i.e. % control) after subtraction of the background signal determined from the non-specific binding control wells. The results are shown in FIG. 5 and in Tables 8 and 9 below.

[4] = target: T2, recombinant human PD-1 Fc chimera (human, UniProt Q15116 25-167); assay: SPR Biacore T200, single cycle kinetics, human PD-1-hu Fc amine coupled to CM5, 1:1 model
T2 construct: Bought protein (R&D 1086-PD in the HTRF assay); also called human PD-1-hu Fc; huPD-1Fc; not shown: human Fc
T2 sequence (Q15116 25-167 limits assumed, stated change not applied): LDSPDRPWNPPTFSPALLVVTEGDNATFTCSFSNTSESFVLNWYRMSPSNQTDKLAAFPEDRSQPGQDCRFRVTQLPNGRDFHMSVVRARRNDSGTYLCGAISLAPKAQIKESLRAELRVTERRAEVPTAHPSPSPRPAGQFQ
Protocol: Binding kinetics of certain humabodies binding to human PD-1-hu Fc were measured by surface plasmon resonance (SPR) technology using Biacore T200 instrument (GE Healthcare). Recombinant human PD-1-hu Fc was immobilized by standard amine coupling to CM5 sensors chip (GE Healthcare) using 0.1 mg/ml solution of antigen in 10 mM sodium acetate at pH 5.5. For the reference flow cell, a blank immobilisation was carried out. Single cycle kinetics assays were used to study the interaction, a five point, three-fold dilution series of each Humabody® VH was made with a top concentration of 30 nM. The binding kinetics were followed by flowing the Humabody® VH over the chip surface in HBS EP+ buffer at a flow rate of 30 μl/min. The contact time for each of the association steps was 180 seconds and the dissociation step was varied between 1200-3600 seconds. The data was fitted to a 1:1 binding model after double reference subtraction using the Biacore T200 Evaluation software.

[5] = target: T1, human PD-1 expressed on cells (CHO TREX …); assay: FMAT epitope competition, CHO human PD1 cells; competitor Epitope 2 (2.1-Strep tagged protein)
Protocol: For the epitope competition assay reagents were prepared in FMAT assay buffer.
Multivalent molecules 1.92b-4GS-1.39a and 1.92b-4gs-1.62a were tested in the epitope competition assay as described above. 1.92b-4GS-1.39a and 1.92b-4gs-1.62 did cross compete with 1.1-Strap tagged and 2.1-Strap tagged proteins for binding to the cells.
Plates were incubated for a minimum of 1.5 hours at room temperature then fluorescence measured in the FL2 (502 nm-537 nm) and FL5 (677-800 nm) channels on the Mirrorball plate reader (TTP) following excitation at 488 nm and 640 nm. Data was expressed as a % of the total binding control (i.e. % control) after subtraction of the background signal determined from the non-specific binding control wells.

[6] = target: T1, human PD-1 expressed on cells (CHO TREX …); assay: epitope competition assay on CHO human PD1 cells (labelled VH not specified) after 1 day in mouse serum
Protocol: (§1) Serum stability of VH and multivalent VH constructs was assessed by measurement of their activity following incubation for 0, 1, 4 or 7 days both in mouse (Sigma M5905) and human serum. […] Minimal loss of activity was observed following incubation with serum.

[7] = target: T1, human PD-1 expressed on cells (CHO TREX …); assay: epitope competition assay on CHO human PD1 cells (labelled VH not specified) after 0 days in mouse serum
Protocol: as §1

[8] = target: T1, human PD-1 expressed on cells (CHO TREX …); assay: epitope competition assay on CHO human PD1 cells (labelled VH not specified) after 4 days in human serum
Protocol: as §1

[9] = target: T1, human PD-1 expressed on cells (CHO TREX …); assay: epitope competition assay on CHO human PD1 cells (labelled VH not specified) after 4 days in mouse serum
Protocol: as §1

T1 sequence (Q15116 21-288): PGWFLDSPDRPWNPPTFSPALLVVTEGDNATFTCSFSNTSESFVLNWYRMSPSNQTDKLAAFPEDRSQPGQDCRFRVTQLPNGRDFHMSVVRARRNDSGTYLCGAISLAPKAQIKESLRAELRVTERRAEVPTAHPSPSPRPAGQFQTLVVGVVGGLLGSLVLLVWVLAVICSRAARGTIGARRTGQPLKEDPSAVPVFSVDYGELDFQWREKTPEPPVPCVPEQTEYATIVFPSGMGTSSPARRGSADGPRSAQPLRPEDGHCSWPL

B1: 1.92b-4GS-1.62a (other)
chain: EVQLVESGGGLVKPGGSLRLSCAASGFTFSDESMTWMRQAPGKGLEWVSYISSGGGVKFYADSVKGRFTISRDNAKNSLYLQMNSLRAEDTAVYYCAREAPLRLGESPHDAFDISGQGTMVTVSSGGGGSGGGGSGGGGSGGGGSEVQLVESGGGVVRPGGSLRLSCAASGFTFDDYAMSWVRQAPGKGLEWVSGITWNAGSTGYADSVKGRFTISRDNAKNSLYLQMNSLRAEDTALYYCVRDKYSYAWSYDDFDIWGQGTMVTVSS
notes: Biparatopic VH-linker-VH; also called 1.92-4GS-1.62a; 1.92b-4gs-2.12a
B1 was tested, and the “EC50 (M), NFAT-Luciferase reporter gene assay” value [1] was 1.2e-09 M, the EC50 [2] was 0.2 nM and the IC50 [3] was 1.2 nM. It also gave a Kd [4] of 0.0097 nM, a koff [4] of 4.3e-06 s⁻¹ and a kon [4] of 440000 M⁻¹ s⁻¹. For the same binder, the EC50 [5] was 1 nM, the IC50 [6] was 2 nM and the IC50 [7] was 1.7 nM. The IC50 [8] was 1.1 nM and the IC50 [9] was 1.8 nM.

B2: 1.92b-4GS-1.39a (other)
chain: EVQLVESGGGLVKPGGSLRLSCAASGFTFSDESMTWMRQAPGKGLEWVSYISSGGGVKFYADSVKGRFTISRDNAKNSLYLQMNSLRAEDTAVYYCAREAPLRLGESPHDAFDISGQGTMVTVSSGGGGSGGGGSGGGGSGGGGSEVQLVESGGGLVQPGRSLRLSCAASGFTFDDYALHWVRQAPGKDLEWVSGISWNGGSYGYADSVKGRFTISRDNAKNSLYLQMNSLRAEDTALYYCVREKGPGLTGSTADYYGLDAWGQGTMVTVSS
notes: Biparatopic VH-linker-VH; built from its parts here because it is not clear whether 1112 is the protein or the nucleic acid
B2 was tested, and the “EC50 (M), NFAT-Luciferase reporter gene assay” value [1] was 2e-09 M, the EC50 [2] was 0.2 nM and the IC50 [3] was 1.45 nM. The Kd [4] was 0.012 nM, the koff [4] was 6.5e-06 s⁻¹ and the kon [4] was 510000 M⁻¹ s⁻¹. It also gave an EC50 [5] of 1.2 nM, an IC50 [6] of 1.3 nM and an IC50 [7] of 1.2 nM. For the same binder, the IC50 [8] was 1.1 nM and the IC50 [9] was 1.6 nM.

— patent publication US20220306744A1 (CRESCENDO BIOLOGICS, published 2022)
